Experimental data published in patent publication EP2105446A2 (ZymoGenetics, Inc., dated 2009).

B1: zalpha11CFLG soluble receptor (zalpha11 extracellular domain with C-terminal FLAG tag) (receptor)
chain: not shown
B2: zalpha11CEE soluble receptor (zalpha11 extracellular domain with C-terminal Glu-Glu tag) (receptor)
chain: not shown

Key:
[1] = target: factor present in the activated CD3+ selected human T-cell conditioned media (human); test: cell-based or functional assay
[2] = target: factor present in the activated monkey spleen conditioned media (monkey); test: cell-based or functional assay

Binder | inhibition of BaF3/Zalpha11 cell growth (Alamar Blue), concentration giving complete inhibition [1] [µg/mL] | titration of soluble receptor, lowest concentration giving complete inhibition of BaF3/Zalpha11 growth [1] [ng/mL] | inhibition of BaF3/Zalpha11 cell growth (Alamar Blue), concentration giving complete inhibition [2] [µg/mL] | titration of soluble receptor, lowest concentration giving complete inhibition of BaF3/Zalpha11 growth [2] [ng/mL]
B1 | 10 | 20 | 10 | 20
B2 | 10 | 20 | 10 | 20
